Where a chain is given by its changes, count along the chain named.
Legend:
[1] = biological target: T1, SfSTING (Sphingobacterium faecium TIR–STING) (Sphingobacterium faecium, UniProt A0A2T5Y4G4); assay: cryo-EM structure; EMSA; conditions: 3x molar c-di-GMP (84 uM); STING CDN-binding pocket at dimer interface; activating ligand
T1 construct: gene cap12; full-length TIR-STING; N-terminal 6xHis fusion, modified pET16, E. coli BL21-CodonPlus(DE3)-RIL; homodimer forming filaments
T1 sequence (A0A2T5Y4G4 1-323): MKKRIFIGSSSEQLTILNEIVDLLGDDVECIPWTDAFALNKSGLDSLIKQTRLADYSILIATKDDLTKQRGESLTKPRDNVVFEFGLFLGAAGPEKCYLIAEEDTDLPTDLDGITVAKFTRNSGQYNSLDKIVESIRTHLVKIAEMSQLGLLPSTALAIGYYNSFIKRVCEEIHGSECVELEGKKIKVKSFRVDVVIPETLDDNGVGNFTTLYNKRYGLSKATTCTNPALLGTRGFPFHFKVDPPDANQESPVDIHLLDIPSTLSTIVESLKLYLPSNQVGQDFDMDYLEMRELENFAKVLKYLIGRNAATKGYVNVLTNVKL

[2] = biological target: T1, SfSTING (Sphingobacterium faecium TIR–STING); assay: fluorescence NADase assay; format: biochemical; conditions: 500 uM substrate; 20 uM c-di-GMP activator; 20 mM HEPES-KOH pH 7.5, 100 mM KCl
[3] = biological target: the molecule itself; assay: negative-stain EM; 1 μM wild-type or mutant SfSTING with 10 μM c-di-GMP, 20 mM HEPES-KOH pH 7.5, 250 mM KCl, 1 mM TCEP, 15 min on ice; dimers to filament
[4] = biological target: the molecule itself; assay: cryo-EM structure; SfSTING 1 mg/ml rapidly mixed with 3× molar 3′,3′-cGAMP (84 μM), a weakly activating ligand; dimers to short oligomers
[5] = biological target: the molecule itself; assay: cryo-EM structure; SfSTING 1 mg/ml rapidly mixed with 3× molar c-di-GMP (84 μM), frozen within 10 s, 4 °C; second dataset pre-incubated with 1 mM benzamide adenine dinucleotide; dimers to filament (single and antiparallel double filaments)

Nc1nc2c(ncn2[C@@H]2O[C@@H]3COP(=O)(O)O[C@H]4[C@@H](O)[C@H](n5cnc6c(=O)[nH]c(N)nc65)O[C@@H]4COP(=O)(O)O[C@H]3[C@H]2O)c(=O)[nH]1 [c-di-GMP]
cryo-EM structure; EMSA [1]: cryo-EM density map of the active SfSTING–c-di-GMP filament complex

NC(=O)c1ccc[n+]([C@@H]2O[C@H](COP(=O)(O)OP(=O)(O)OC[C@H]3O[C@@H](n4cnc5c4ncn4ccnc54)[C@H](O)[C@@H]3O)[C@@H](O)[C@H]2O)c1 [nicotinamide 1,N^6-ethenoadenine dinucleotide]
fluorescence NADase assay [2]: WT* and E95Q* mutant SfSTING consume the ε-NAD substrate within the deadtime

B1: SfSTING ΔA36–K41 (TIR BB loop replaced by a glycine-serine linker, D35-GSGG-S42) (enzyme, Sphingobacterium faecium, UniProt A0A2T5Y4G4 1-323, looked up)
chain: MKKRIFIGSSSEQLTILNEIVDLLGDDVECIPWTDGSGGSGLDSLIKQTRLADYSILIATKDDLTKQRGESLTKPRDNVVFEFGLFLGAAGPEKCYLIAEEDTDLPTDLDGITVAKFTRNSGQYNSLDKIVESIRTHLVKIAEMSQLGLLPSTALAIGYYNSFIKRVCEEIHGSECVELEGKKIKVKSFRVDVVIPETLDDNGVGNFTTLYNKRYGLSKATTCTNPALLGTRGFPFHFKVDPPDANQESPVDIHLLDIPSTLSTIVESLKLYLPSNQVGQDFDMDYLEMRELENFAKVLKYLIGRNAATKGYVNVLTNVKL
notes: S. faecium TIR–STING (SfSTING) in which residues A36–K41 of the TIR BB loop are replaced by GSGG (D35-GSGG-S42); Mutant of m1; also called TIR-to-TIR cross-filament contact mutant; SfSTING TIR mutant; source: E. coli BL21-CodonPlus(DE3)-RIL, purified (Ni-NTA, Superdex 200 SEC)
binding result [3]: binds

B2: Sphingobacterium faecium TIR–STING (SfSTING), wild type (enzyme, UniProt A0A2T5Y4G4 1-323, looked up)
chain: T1 sequence (A0A2T5Y4G4 1-323)
notes: TIR–STING antiphage effector of the S. faecium CBASS operon; also called WT; source: E. coli BL21-CodonPlus(DE3)-RIL, purified (Ni-NTA, Superdex 200 SEC)
stoichiometry N [4]: 4 to 6 units (dimers) | stoichiometry N [5]: ~85 dimer copies

B3: SfSTING D110A (enzyme, Sphingobacterium faecium, UniProt A0A2T5Y4G4 1-323, looked up)
chain: T1 sequence (A0A2T5Y4G4 1-323) with D110A
notes: S. faecium TIR–STING (SfSTING) with a substitution of the TIR DD-loop residue that completes the active site of the dimer mate; Mutant of m1; same vector and purification; also called intradimeric contact mutant; source: E. coli BL21-CodonPlus(DE3)-RIL, purified (Ni-NTA, Superdex 200 SEC)
binding result [3]: binds
